According to patent US20250243261A1 (CZ BIOHUB SF, published 2025):

How the values were obtained:
[1] = biological target: T1, SARS-CoV-2 Omicron-variant receptor binding domain (RBD) (SARS-CoV-2 Omicron variant); experiment: BLI, IgG
T1 construct: domain: RBD

[2] = biological target: SARS-CoV-2 Beta-variant Spike with two stabilizing proline substitutions (S-2P) (SARS-CoV-2 Beta variant); experiment: BLI, IgG

B1: C143 WT IgG (antibody, V domains shown)
VH: EVQLVESGGGLVQPGGSLRLSCAASGFSVSTKYMTWVRQAPGKGLEWVSVLYSGGSDYYADSVKGRFTISRDNSKNALYLQMNSLRVEDTGVYYCARDSSEVRDHPGHPGRSVGAFDIWGQGTMVTVSS
VL: QSALTQPASVSGSPGQSITISCTGTSNDVGSYTLVSWYQQYPGKAPKLLIFEGTKRSSGISNRFSGSKSGNTASLTISGLQGEDEADYYCCSYAGASTFVFGGGTKLTVL
Question: For B1, which Kd [1] is on record?
Answer: 600 µM

Question: What about the Kd [2] of the same binder?
Answer: 0.45 µM
